Results on 42 variants are retold here after the RNAGym collection of RNA variant scans (doi:10.1073/pnas.2313332121).

The chains are these.
B1: TPR 5TU (parent)
chain: GGAUCUUCUCGAUCUAACAAAAAAGACAAAUCUGCCACAAAGCUUGAGAGCAUCUUCGGAUGCAGAGGCGGCAGCCUUCGGUGGCGCGAUAGCGCCAACGUUCUCAACUAUGACACGCAAAACGCGUGCUCCGUUGAAUGGAGUUUAUCAUG

Fewer inactive variants are shown than the library holds.

The variants in this series derive from B1. In words: polymerase ribozyme fitness, log enrichment relative to wild type (log ratio); higher = more active; in vitro selection for triplet polymerase activity. In a few lines: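 PCR was used to build mutant libraries for each subunit of a heterodimeric triplet polymerase ribozyme, which were then transcribed. A single in vitro selection round, in triplicate, used a frozen incubation at −7 °C and recovered extended constructs by gel excision, streptavidin beads and RT-PCR. Fitness is the logarithm of genotype enrichment relative to wild-type enrichment, averaged over replicates with inverse-variance weights. The logarithm is base 2, and after Illumina sequencing only genotypes with ≥10 input reads and ≥1 read per output were kept.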
U7C G50A G84U C87A U151A: the “polymerase ribozyme fitness (log ratio)” value is at most -4.2.

In the case of U7G U82A G117U, the “polymerase ribozyme fitness (log ratio)” value was -3.65.

Regarding U7A C8G U13G U90G C95G U134A, the “polymerase ribozyme fitness (log ratio)” value was at most -4.2.

In the case of C8G C14G C18G C96U A137U, the “polymerase ribozyme fitness (log ratio)” value was at most -4.2.

U7G A40G A52C G65U A73G U82A C93G U134A U148G: the “polymerase ribozyme fitness (log ratio)” value was at most -4.2.

Take U7G G11C U33C A64U C96A A122G G124A G140U: the “polymerase ribozyme fitness (log ratio)” value was at most -4.2.

Turning to C8G C125A, the “polymerase ribozyme fitness (log ratio)” value is -3.82.

With C8G C18G C57G G83U C118U G128A, the “polymerase ribozyme fitness (log ratio)” value was at most -4.2.

U7G A12G A52U C57A A73G C93G: the “polymerase ribozyme fitness (log ratio)” value was at most -4.2.

U7G U45A C57U C76A G83A G84A: the “polymerase ribozyme fitness (log ratio)” value was at most -4.2.

C8A G11C A29U C95G: the “polymerase ribozyme fitness (log ratio)” value was at most -4.2.

C8A A52C C87A: the “polymerase ribozyme fitness (log ratio)” value is at most -4.2.

On to U7C A17G A119U, for which the “polymerase ribozyme fitness (log ratio)” value is -3.03.

For the variant C8G C85U G88U U145C, the “polymerase ribozyme fitness (log ratio)” value was at most -4.2.

For the variant C8A C18U A20G U45A G59C G62A C76U C114G, the “polymerase ribozyme fitness (log ratio)” value was at most -4.2.

With U7G C76A C85G C95A A121U, the “polymerase ribozyme fitness (log ratio)” value is at most -4.2.

U7A C75U G94C A122G U145A: the “polymerase ribozyme fitness (log ratio)” value was -3.63.

As for U7C C27A C69G G86A G100C, the “polymerase ribozyme fitness (log ratio)” value was at most -4.2.

In the case of C8A U55A G84U C85A, the “polymerase ribozyme fitness (log ratio)” value was at most -4.2.

U7C A24U G84U C87G A107C G112U G133U: the “polymerase ribozyme fitness (log ratio)” value was at most -4.2.

As for C8G A29C U55G A60G C85G A89G G140C, the “polymerase ribozyme fitness (log ratio)” value is at most -4.2.

Consider C8A C43U G46A A73G C85U U134G U151A, for which the “polymerase ribozyme fitness (log ratio)” value was at most -4.2.

As for C8G A20C A73U C99G A106G G140A U144G A147C, the “polymerase ribozyme fitness (log ratio)” value was at most -4.2.

U7A A22C A24U C54G G83A: the “polymerase ribozyme fitness (log ratio)” value was at most -4.2.

On to U7G G50C C87G C125U G133A G140A A142U, for which the “polymerase ribozyme fitness (log ratio)” value is at most -4.2.

As for C8G A29C G42C, the “polymerase ribozyme fitness (log ratio)” value is at most -4.2.

U7G C38A G83A G84U U148C: the “polymerase ribozyme fitness (log ratio)” value is at most -4.2.

Turning to U7C A19U C35U A37G U55G C76G G86A G88U C103G G124A, the “polymerase ribozyme fitness (log ratio)” value was at most -4.2.

Consider C8A A142C, for which the “polymerase ribozyme fitness (log ratio)” value was -4.11.

With C8A A30U A40U G48C G84A A113U C132A, the “polymerase ribozyme fitness (log ratio)” value was at most -4.2.

Consider U7G C10A C51A U82G G88A C108U U111C G133U G143C, for which the “polymerase ribozyme fitness (log ratio)” value is at most -4.2.

C8A C18G A40G C54G A73C C87A U90A C114U: the “polymerase ribozyme fitness (log ratio)” value was at most -4.2.

Turning to U7A A20G C35U A47G G83A C96A, the “polymerase ribozyme fitness (log ratio)” value was at most -4.2.

Consider U7G A22G C32U G59C U77G C114U U145A, for which the “polymerase ribozyme fitness (log ratio)” value is at most -4.2.

Take U7A C14A A23C C75G C85U: the “polymerase ribozyme fitness (log ratio)” value is at most -4.2.

For C8A G48A G92C, the “polymerase ribozyme fitness (log ratio)” value was at most -4.2.

With C8A C10U U33A G81U C87A C103G A147C, the “polymerase ribozyme fitness (log ratio)” value was at most -4.2.

Turning to C8G A47C C54G, the “polymerase ribozyme fitness (log ratio)” value is at most -4.2.

With C8A A26U A37C G59A C93U, the “polymerase ribozyme fitness (log ratio)” value is at most -4.2.

Turning to C8A U55A G88A G133C G136A U139A G143C, the “polymerase ribozyme fitness (log ratio)” value was at most -4.2.

On to C8A U56A A66C G94A A98U, for which the “polymerase ribozyme fitness (log ratio)” value was at most -4.2.

On to C8G A16U A20U C79U C85U A115C, for which the “polymerase ribozyme fitness (log ratio)” value was at most -4.2.
